This note sets out measurements from publication PMC4270374.

By Km is commonly meant the concentration of substrate that gives half-maximal velocity. By kcat is commonly meant the number of substrate molecules converted per active site and unit of time at saturation. As usually defined, the kcat/Km is the turnover number divided by the Michaelis constant.

Substrate in this series: O=c1ccn([C@@H]2O[C@H](COP(=O)(O)OP(=O)(O)O[C@H]3O[C@@H]([C@H](O)CO)[C@H](O)[C@H]3O)[C@@H](O)[C@H]2O)c(=O)[nH]1
Nature of the series: purified protein.

Where [1] appears, read: 25 mM HEPES, 125 mM NaCl, 20 mM dithionite, pH 7.5, 37 °C.

B1: AfUGM (wild-type) (Aspergillus fumigatus) (protein)
chain: MTHPDISVDVLVIGAGPTGLGAAKRLNQIDGPSWMIVDSNETPGGLASTDVTPEGFLYDVGGHVIFSHYKYFDDCLDEALPKEDDWYTHQRISYVRCQGQWVPYPFQNNISMLPKEEQVKCIDGMIDAALEARVANTKPKTFDEWIVRMMGTGIADLFMRPYNFKVWAVPTTKMQCAWLGERVAAPNLKAVTTNVILGKTAGNWGPNATFRFPARGGTGGIWIAVANTLPKEKTRFGEKGKVTKVNANNKTVTLQDGTTIGYKKLVSTMAVDFLAEAMNDQELVGLTKQLFYSSTHVIGVGVRGSRPERIGDKCWLYFPEDNCPFYRATIFSNYSPYNQPEASKKLPTMQLADGSRPQSTEAKEGPYWSIMLEVSESSMKPVNQETILADCIQGLVNTEMLKPTDEIVSTYHRRFDHGYPTPTLEREGALTQILPKLQDKDIWSRGRFGSWRYEVGNQDHSFMLGVEAVDNIVNGAVELTLNYPDFVNGRQNTERRLVDGAQVFAKSKAQ
Turning to B1, under setting [1], the Michaelis-Menten constant (Km) was 110 ± 15 µM, the kcat is 72 ± 4 s⁻¹ and the kcat/Km came out at 650000 ± 90000 M⁻¹ s⁻¹.

B2: MtUGM (Mycobacterium tuberculosis H37Rv) (protein)
chain: MQPMTARFDLFVVGSGFFGLTIAERVATQLDKRVLVLERRPHIGGNAYSEAEPQTGIEVHKYGAHLFHTSNKRVWDYVRQFTDFTDYRHRVFAMHNGQAYQFPMGLGLVSQFFGKYFTPEQARQLIAEQAAEIDTADAQNLEEKAISLIGRPLYEAFVKGYTAKQWQTDPKELPAANITRLPVRYTFDNRYFSDTYEGLPTDGYTAWLQNMAADHRIEVRLNTDWFDVRGQLRPGSPAAPVVYTGPLDRYFDYAEGRLGWRTLDFEVEVLPIGDFQGTAVMNYNDLDVPYTRIHEFRHFHPERDYPTDKTVIMREYSRFAEDDDEPYYPINTEADRALLATYRARAKSETASSKVLFGGRLGTYQYLDMHMAIASALNMYDNVLAPHLRDGVPLLQDGA
As for B2, where the note is “pH 7.5, 37.0 °C”, the Michaelis constant (Km) was found to be 78 ± 16 µM and the specificity constant (kcat/Km) was 910000 ± 150000 M⁻¹ s⁻¹.
